# Test results as given in PMC5643146.
# Target: xTCF1
# Assay: co-IP; binding competition: HEK293T cells transfected with flag-TCF and β-cat1 or β-cat4 alone, together, or with β-cat2 as control; IP with FLAG-M2 beads; precipitated β-catenins quantified and normalised against total β-catenins in whole cell lysates
substance,measurement,value
Smed-β-catenin1 (natural protein),"relative binding to TCF, β-cat1 alone and β-cat1+β-cat2 co-transfected compared (negative control)",1.11
same,"relative binding to TCF, β-cat1 alone and β-cat1+β-cat4 co-transfected compared",0.63
Smed-β-catenin4 (natural protein),"relative binding to TCF, β-cat4 alone and β-cat1+β-cat4 co-transfected compared",0.51
same,"relative binding to TCF, β-cat4 alone and β-cat4+β-cat2 co-transfected compared (negative control)",0.91
